Reference: patent US20040137643A1, “Immunodetection and quantification methods” (priority 2002, published 2004)
“And” between values parts separate entries of the source, which are not always exact repeats. Equal entries are not always repeated. Where two headings read alike, the source gives them in different places.

B1: Wild type C4H: Arabidopsis P450 cinnamate 4-hydroxylase (C4H) expressed in yeast from pYeDP60-C4H (protein, UniProt P92994 1-505, looked up)
Trans-cinnamate …: MDLLLLEKSLIAVFVAVILATVISKLRGKKLKLPPGPIPIPIFGNWLQVGDDLNHRNLVDYAKKFGDLFLLRMGQRNLVVVSSPDLTKEVLLTQGVEFGSRTRNVVFDIFTGKGQDMVFTVYGEHWRKMRRIMTVPFFTNKVVQQNREGWEFEAASVVEDVKKNPDSATKGIVLRKRLQLMMYNNMFRIMFDRRFESEDDPLFLRLKALNGERSRLAQSFEYNYGDFIPILRPFLRGYLKICQDVKDRRIALFKKYFVDERKQIASSKPTGSEGLKCAIDHILEAEQKGEINEDNVLYIVENINVAAIETTLWSIEWGIAELVNHPEIQSKLRNELDTVLGPGVQVTEPDLHKLPYLQAVVKETLRLRMAIPLLVPHMNLHDAKLAGYDIPAESKILVNAWWLANNPNSWKKPEEFRPERFFEEESHVEANGNDFRYVPFGVGRRSCPGIILALPILGITIGRMVQNFELLPPPGQSKVDTSEKGGQFSLHILNHSIIVMKPRNC
B2: FLAG-tagged C4H: amino-terminal FLAG-epitope tagged C4H expressed in yeast from pYeDP60-FC4H (protein, UniProt P92994 1-505, looked up)
Trans-cinnamate …: B1 Trans-cinnamate …
modifications: N-terminal FLAG tag

Assay: C4H enzyme assay: para-hydroxylation of cinnamic acid by yeast microsomes, HPLC quantification of p-coumarate
Assay type: biochemical
Conditions: for Km: Arabidopsis C4H in WAT11 yeast microsomes, substrate cinnamic acid; for Turnover (min^−1 ± SD), CO difference spectrum: P450 concentration from CO difference spectroscopy; for turnover rate, calculated using P450 concentrations from CO difference spectroscopy: spectroscopic P450 quantification
Experimental: C4H assays were carried out in the presence of various concentrations of cinnamic acid as previously described (Humphreys et al., 1999). Briefly, an NADPH regenerating system consisting of 1 mM NADP^+, 10 mM glucose-6-phosphate, and 1 unit of glucose-6-phosphate dehydrogenase (Sigma, St. Louis, Mo.) was pre-incubated at 30° C. for 5 min to generate NADPH in a final volume of 450 PL of assay buffer. Assays were initiated by the addition of 50 μL of appropriately diluted microsomes and were incubated at 30° C. for 20 min before the reactions were stopped with 100 μL of 3N HCl. Samples were centrifuged for 20 min at 14,000×g and then analyzed by HPLC (Shimadzu Corp., Kyoto, Japan) using a Microsorb-MV C-18 column (Varian Analytical Instruments, Walnut Creek, Calif.) using the following method: solvent A, 1.5% acetic acid in water; solvent B, acetonitrile; flow rate of 1 mL min^−1; 0 to […] in 1.5 min, […], 35 to 100% B in 1 min, 100% B for 5 min. Reaction product was quantified by UV detection at 308 nm. Assays conducted with microsomes isolated from yeast transformed with pYeDP60 served as negative controls.
To evaluate the impact of introducing an amino-terminal FLAG epitotope on C4H enzymatic activity, kinetic parameters of both native and FLAG-C4H were determined using the same microsomal fractions used for protein quantification. It is important to note that the WAT11 yeast strain was chosen because this strain is engineered to express the Arabidopsis P450 reductase gene ATR1 under the control of the same galactose promoter used to drive P450 expression, eliminating the need to reconstitute the P450/P450 reductase system. Consistent with subcellular targeting of wild-type C4H expressed in yeast, both the native and FLAG-C4H activity was found in the microsomal fraction. […] Turnover rates of native and FLAG-C4H were also evaluated, using both spectroscopic and immunological P450 quantitation. When calculated using P450 concentrations obtained from CO difference spectroscopy, native C4H and FLAG-C4H turnover rates were determined to be 28±0.1 and 83±2.0 min^1, respectively. This difference, although significant, may be associated with variability in reductase activity in this heterologous expression system (data not shown). In comparison to CO difference spectroscopy, the lower concentration of FLAG-C4H obtained by Midwestern blot gives a correspondingly higher turnover rate of 380±7 min^−1.

[1] = P450 concentration from Midwestern blot

| Molecule | Km (n=3, read-out: Km app. (±SD)) [µM] | Km (read-out: Km^aPP) [µM] | Turnover (min^−1 ± SD), CO difference spectrum [min⁻¹] | turnover rate, calculated using P450 concentrations from CO difference spectroscopy [min^1] | Turnover (min^−1 ± SD), Midwestern blot [1] [min⁻¹] | turnover rate, calculated using immunological quantification [1] [min^1] | Turnover (min^−1 ± SD), Midwestern blot (P450 concentration from Midwestern blot, listed as FLAG-C4H) [min⁻¹] | turnover rate, calculated using P450 concentrations from CO difference spectroscopy (listed as FLAG-C4H) |
| --- | --- | --- | --- | --- | --- | --- | --- | --- |
| B1 | 0.7 ± 0.01 | 0.7 ± 0.01 | 28 ± 0.1 | 28±0.1 |  |  |  |  |
| B2 | 1.1 ± 0.09 | 1.1 ± 0.09 | 83 ± 2 |  | 380 ± 7 | 380±7 | 380 ± 7 | 83±2.0 min^1 and 83±2 min^1 |
